The source of these data is publication PMC8156467, “Disruption of YY1-EZH2 Interaction Using Synthetic Peptides Inhibits Breast Cancer Development” (Cancers, 2021).

For test [1], the target named is Yin Yang 1 (YY1), endogenous (human (endogenous in MDA-MB-231)) (UniProt P25490).
Test [2] deals with enhancer of zeste homolog 2 (EZH2), endogenous (human (endogenous in MDA-MB-231)) (UniProt Q15910).
enhancer of zeste homolog 2 (EZH2), endogenous (human (endogenous in MDA-MB-231)), sequence (Q15910 whole entry): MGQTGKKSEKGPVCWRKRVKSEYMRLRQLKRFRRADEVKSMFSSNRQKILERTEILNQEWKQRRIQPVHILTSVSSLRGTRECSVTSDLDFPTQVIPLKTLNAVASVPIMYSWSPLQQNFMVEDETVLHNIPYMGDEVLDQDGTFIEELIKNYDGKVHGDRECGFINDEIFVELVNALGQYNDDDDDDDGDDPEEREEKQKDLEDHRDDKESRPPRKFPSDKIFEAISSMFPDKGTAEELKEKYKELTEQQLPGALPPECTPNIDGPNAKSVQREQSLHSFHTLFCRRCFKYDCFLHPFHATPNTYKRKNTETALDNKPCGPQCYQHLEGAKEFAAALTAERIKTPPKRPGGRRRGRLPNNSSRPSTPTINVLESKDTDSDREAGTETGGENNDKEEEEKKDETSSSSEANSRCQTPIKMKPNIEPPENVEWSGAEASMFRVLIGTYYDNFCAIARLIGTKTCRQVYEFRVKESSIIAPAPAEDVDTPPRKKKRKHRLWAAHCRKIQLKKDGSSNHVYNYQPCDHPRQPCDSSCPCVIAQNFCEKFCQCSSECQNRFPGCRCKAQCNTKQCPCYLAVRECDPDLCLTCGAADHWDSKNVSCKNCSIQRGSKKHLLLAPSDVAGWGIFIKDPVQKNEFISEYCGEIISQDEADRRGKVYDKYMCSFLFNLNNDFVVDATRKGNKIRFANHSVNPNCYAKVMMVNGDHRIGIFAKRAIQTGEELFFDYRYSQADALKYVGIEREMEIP

synthetic FITC-TAT-3×Glycine-OPB peptide, sequence (P25490 whole entry): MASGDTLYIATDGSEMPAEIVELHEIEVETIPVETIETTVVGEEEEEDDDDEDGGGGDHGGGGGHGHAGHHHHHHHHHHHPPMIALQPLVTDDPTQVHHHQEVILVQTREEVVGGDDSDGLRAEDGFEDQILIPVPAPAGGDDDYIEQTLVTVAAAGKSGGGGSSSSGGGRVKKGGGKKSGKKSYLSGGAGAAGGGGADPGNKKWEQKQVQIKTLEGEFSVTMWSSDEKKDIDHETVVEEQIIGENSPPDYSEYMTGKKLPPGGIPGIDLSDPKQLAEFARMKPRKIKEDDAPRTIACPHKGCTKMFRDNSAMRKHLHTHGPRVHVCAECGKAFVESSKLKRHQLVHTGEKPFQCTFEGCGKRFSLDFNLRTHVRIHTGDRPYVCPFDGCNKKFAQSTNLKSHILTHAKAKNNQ
Yin Yang 1 (YY1), endogenous (human (endogenous in MDA-MB-231)), sequence (P25490 whole entry): as above

In test [1], “synthetic FITC-TAT-3×Glycine-YPB peptide (from UniProt Q15910-2 493-519)” gave an IC50 of cell viability (WST-1, 48 h) in MCF-7, MDA-MB-231 and MDA-MB-453 breast cancer cells; the peptide blocks YY1-EZH2 (m1 with m2) of 20 µM.

Consider “synthetic FITC-TAT-3×Glycine-OPB peptide (from UniProt P25490 201-226)”, for which the IC50 of cell viability (WST-1, 48 h) in MCF-7, MDA-MB-231 and MDA-MB-453 breast cancer cells; the peptide blocks YY1-EZH2 (m1 with m2) in test [2] turned out to be 20 µM.
